Test results from patent US20250333441A1, “POLYPEPTIDE INHIBITORS AND USES THEREOF” (Neuracle Science Co., Ltd., priority 2021, published 2025).

Key:
[1] = target: binding of FAM19A5 protein to full-length ectodomain of the LRRC4B protein (amino acids 36-576)-hFc (Homo sapiens, UniProt Q7Z5A7); test: Competitive inhibition assay, plate coated with full-length LRRC4B ectodomain; conditions: 100 nM coated ectodomain; FAM19A5 5 ng/mL; increasing concentrations
Experimental: Next, to further assess the role that the binding domain of the LRRC4B protein has on the interaction between FAM19A5 protein and members of the LRRC4 protein family, a competitive inhibition assay was used to determine whether different LRRC4B deletion constructs from Example 2 could inhibit the binding of FAM19A5 to the full-length ectodomain of the LRRC4B protein (i.e., amino acids 36-576 of SEQ ID NO: 2; SEQ ID NO: 5). Briefly, 100 nM of the full-length ectodomain of the LRRC4B protein was used to coat a plate, and then recombinant FAM19A5 protein (5 ng/mL) was added to the plate in combination with the following LRRC4B deletion constructs (increasing concentrations): (1) LRRC4B (453-576) (i.e., construct #11 in Table 6); (2) LRRC4B (453-576) mutant (comprises alanine substitutions at positions 488 and 489 of SEQ ID NO: 2; SEQ ID NO: 16); (3) LRRC4B (484-576) (i.e., construct #12 in Table 6); (4) LRRC4B (482-576); (5) LRRC4B (482-497); and (6) LRRC4B (498-576). The plates were incubated at 37° C., and then, the amount of FAM19A5 bound to the coated LRRC4B ectodomain protein was measured using H1RP-conjugated anti-FAM19A5 (1-65) antibody. […]

[2] = test system: mouse primary cortical neurons; test: Neurite growth of primary cortical neurons (beta-tubulin III immunostaining); assay type: cell-based; conditions: 0.006 to 60 nM; day 3 post-initial culture; versus DMSO control
Experimental: Next, primary cortical neurons (day 1 postnatal) were cultured in vitro with varying concentrations (0.006 to 60 nM) of the LRRC4B (453-576) protein fragment (i.e., amino acid residues 453-576 of SEQ ID NO: 2; SEQ ID NO: 7), and then at day 3 post-initial culture, the effect on neurite growth was assessed by immunostaining the cells with anti-beta-tubulin III antibody. Cells cultured with DMSO (“Veh”) were used as control.
Mouse hippocampal neurons were treated with LRRC4B peptides at 1 and 2 DIV to determine neurite growth. It was measured by using 3 different parameters, which are total neurites length, number of primary and secondary neurites. After the neurons were stained with beta-tubulin III at 3 DIV, neurites length and branch points were measured using Fiji (Image J, NIH, Bethesda). Individual neurons were selected by hand and these parameters were counted using the Simple neurite tracer plugin. Mouse spinal motor neurons sampled at postnatal day 1 were treated with 10 nM of NS101 and LRRC4B-peptides (dFB-dWY-JM31 and dFB-DY-JM31) at 1 and 2 DIV and immunostained with Tau-5 antibody at 3 DIV. Total neurite length and number of somas in images were measured by Neurphology Image J plugin.

[3] = test system: APP/PS1 mice (Alzheimer mouse model); test: Synaptic formation in hippocampal CA1 and CA3 of APP/PS1 mice; assay type: in vivo; conditions: 30 mg/kg intravenous, four consecutive weeks; compared to mutant LRRC4B protein fragment
Experimental: FIGS. 16A, 16B, and 16C show the ability of LRRC4B peptide fragment (amino acid residues 453-576 of SEQ ID NO: 2; “WT”) (i.e., SEQ ID NO: 7) to promote synaptic formation in the hippocampal CA1 of APP/PS1 mice. As further described in Example 8, APP/PS1 mice were treated with the LRRC4B peptide fragment (30 mg/kg; intravenous administration) for four consecutive weeks, and then synaptic formation was assessed by fluorescence microscopy using antibodies against SYP and PSD95. Control animals received no treatment (“Cont”) or the mutant LRRC4B peptide fragment […] (i.e., comprising alanine substitutions at positions 488 and 489 of SEQ ID NO: 2; SEQ ID NO: 16). FIG. 16A provides representative fluorescent photomicrographs. FIGS. 16B and 16C show the SYP and PSD95 intensity, respectively.
FIGS. 17A, 17B, and 17C show the ability of LRRC4B peptide fragment (amino acid residues 453-576 of SEQ ID NO: 2; “WT”; SEQ ID NO: 7) to promote synaptic formation in the hippocampal CA3 of APP/PS1 mice. The animals were treated and analyzed as described in FIGS. 16A-16C. FIG. 17A provides representative fluorescent photomicrographs. FIGS. 17B and 17C show the SYP and PSD95 intensity, respectively.
Additionally, to confirm the above effect on neurite outgrowth in vivo, APP/PS1 mice (Alzheimer mouse model) were used. […] Hong et al., Science 352(6286): 712-716 (May 2016). […]

Chain of binding of FAM19A5 protein to full-length ectodomain of the LRRC4B protein (amino acids 36-576)-hFc (Q7Z5A7 44-132): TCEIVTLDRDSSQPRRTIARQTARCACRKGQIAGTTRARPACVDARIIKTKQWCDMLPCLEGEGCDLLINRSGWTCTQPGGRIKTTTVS

B1: LRRC4B (453-576): LRRC4B fragment, amino acids 453-576 of SEQ ID NO: 2 (SEQ ID NO: 7); used hFc-fused (protein)
chain: VSAVDPVAAGGTGSGGGGPGGSGGVGGGSGGYTYFTTVTVETLETQPGEEALQPRGTEKEPPGPTTDGVWGGGRPGDAAGPASSSTTAPAPRSSRPTEKAFTVPITDVTENALKDLDDVMKTTK
modifications: human Fc fusion in use
notes: used hFc-fused
inhibition of FAM19A5 binding to coated full-length LRRC4B ectodomain protein [1]: able to inhibit FAM19A5 protein from binding
neurite growth [2]: increased neurite growth in a dose-dependent manner
SYP and PSD95 immunoreactivities in CA1 and CA3 [3]: increased SYP and PSD95 immunoreactivities
